Gated (%) and Kd data for two molecules are collected here from US20240166756A1 (KAOHSIUNG MEDICAL UNIVERSITY, published 2024).

In assay [1] the target is human C-X-C chemokine receptor 2 (CXCR2) (human) (UniProt P25025). As to the kind of experiment: flow cytometry, Alexa Fluor-488-conjugated control IgG1 on fixed Panc-1 cells (80 µg/ml per paragraph 49).
For assay [2] the target is unchanged. As to the kind of experiment: flow cytometry, Alexa Fluor-488-conjugated control IgG1 on fixed MiaPaCa II cells (80 µg/ml per paragraph 49). In general terms: A flow cytometer gives signals particle by particle.
Assay [3] has the same target. As to the kind of experiment: flow cytometry, Alexa Fluor-488-conjugated control IgG1 on fixed HMC-1 cells (80 µg/ml per paragraph 49).
The target of assay [4] is T1, CXCR2 antigen peptide (NICR2 peptide) (human, not fully specified).
T1 construct: The immunogen was this peptide conjugated with ovalbumin at its C-terminus ('-C-Ovalbumin')
T1 peptide: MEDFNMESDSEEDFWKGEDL
As to the kind of experiment: SPR (Biacore), antibody flowed over the NICR2 peptide, Langmuir 1:1 fit. From the text: Equilibrium affinity and rate constants derived from a Langmuir 1:1 binding kinetic analysis. The interactions between the humanized anti-CXCR2 mAb and the CXCR2 antigen peptide (NICR2 peptide) were detected by using SPR. The humanized anti-CXCR2 mAb flowed through the CXCR2 antigen peptide (NICR2 peptide) at the indicated concentrations. Data were corrected for nonspecific background binding. All data are representative of three independent experiments. […] Data shown is representative of 3 independent experiments.
The binding affinity of the humanized anti-CXCR2 monoclonal antibody (NICR2-5) was further investigated by surface plasmon resonance (SPR) Biacore technique. […] The binding of the humanized anti-CXCR2 mAb (NICR2-5) to cell surface receptor was analyzed by flow cytometry. Control IgG1 or humanized anti-CXCR2 mAb (NICR2-5) were conjugated with Alexa Fluor-488 fluorescent dye. Cancer cells were fixed with 3.5% formaldehyde for 15 min at room temperature. Fixed cells were incubated with fluorescent dye-conjugated IgG1 (80 μg/ml), or different concentrations of humanized anti-CXCR2 mAb (NICR2-5) (0, 40, 80 μg/ml) at 4° ° C. for 1 h. Cells were washed with phosphate-buffered saline (PBS) three times and subjected to flow cytometric analysis by using Attune NxT Flow Cytometer.
(In SPR one partner is held on a chip, and binding of the other changes the refractive index at the surface.)

As usually defined, the Kd is a measure of binding affinity in units of concentration. A higher Kd goes with lower affinity.

Sequence of human C-X-C chemokine receptor 2 (CXCR2) (human) (P25025 whole entry): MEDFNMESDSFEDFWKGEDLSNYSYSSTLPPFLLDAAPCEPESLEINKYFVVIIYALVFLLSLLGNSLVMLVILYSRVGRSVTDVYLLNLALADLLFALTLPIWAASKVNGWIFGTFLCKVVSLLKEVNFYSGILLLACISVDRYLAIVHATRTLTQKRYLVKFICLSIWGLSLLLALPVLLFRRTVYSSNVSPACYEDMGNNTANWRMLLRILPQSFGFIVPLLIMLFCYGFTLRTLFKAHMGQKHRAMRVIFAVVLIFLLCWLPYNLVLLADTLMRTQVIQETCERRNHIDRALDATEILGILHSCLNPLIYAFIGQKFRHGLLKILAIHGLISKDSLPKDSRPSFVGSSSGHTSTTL

As for hIgG (antibody), the Gated (%) in assay [1] worked out at 8.2%; in assay [2] it was 9.3%; in assay [3], 6.6%.

B1: humanized anti-CXCR2 monoclonal antibody (NICR2-5) (antibody, human IgG1, kappa, V domains shown)
VH: QITLKESGPTLVKPTQTLTLTCTFSGFSLRTSGMGVGWIRQPPGKALEWLAHIWWDDDKRYKPDLKSRLTITKDTSKNQVVLTMTNMDPVDTATYYCARLGLRLRTMDYWGQGTLVTVSS
VL: DIVMTQTPLSLSVTPGQPASISCRSSLSLVHSNGDTYLHWYLQKPGQSPQLLIYKVSNRFSGVPDRFSGSGSGTDFTLKISRVEAEDVGVYYCSQSTHVPTFGQGTKLEIKR
notes: CDRs cloned into human IgG1 vector; Conjugated with Alexa Fluor-488 for flow cytometry; also called anti-CXCR2 mAb; humanized anti-CXCR2 mAb (NICR2-5)
As for B1, the dissociation constant Kd in assay [4] was 300 pM.
